Experimental data published in IntAct's records for PubMed 24768165.

B1: Protein wntless homolog (Homo sapiens), Q5T9L3 (parent)
chain: MAGAIIENMSTKKLCIVGGILLVFQIIAFLVGGLIAPGPTTAVSYMSVKCVDARKNHHKTKWFVPWGPNHCDKIRDIEEAIPREIEANDIVFSVHIPLPHMEMSPWFQFMLFILQLDIAFKLNNQIRENAEVSMDVSLAYRDDAFAEWTEMAHERVPRKLKCTFTSPKTPEHEGRYYECDVLPFMEIGSVAHKFYLLNIRLPVNEKKKINVGIGEIKDIRLVGIHQNGGFTKVWFAMKTFLTPSIFIIMVWYWRRITMMSRPPVLLEKVIFALGISMTFINIPVEWFSIGFDWTWMLLFGDIRQGIFYAMLLSFWIIFCGEHMMDQHERNHIAGYWKQVGPIAVGSFCLFIFDMCERGVQLTNPFYSIWTTDIGTELAMAFIIVAGICLCLYFLFLCFMVFQVFRNISGKQSSLPAMSKVRRLHYEGLIFRFKFLMLITLACAAMTVIFFIVSQVTEGHWKWGGVTVQVNSAFFTGIYGMWNLYVFALMFLYAPSHKNYGEDQSNGDLGVHSGEELQLTTTITHVDGPTEIYKLTRKEAQE

Variants of: B1
Conditions: with wnt3a_human WNT3A

| effect of a mutation on the interaction | Variant |
| --- | --- |
| with no effect | Y425A |

Variants of: B1
Conditions: with wnt3a_human WNT3A
Remark: another data set of the same source

| effect of a mutation on the interaction | Variant |
| --- | --- |
| with no effect | R536A |
| disrupting interaction strength | K537A |
| with no effect | E538A |
| with no effect | Q540A |
| with no effect | E541A |
